Target: neonatal Fc receptor (FcRn) protein, immobilized on a column (UniProt P55899)
Assay: FcRn affinity chromatography; FcRn immobilised on an affinity column (Roche); 30 µg antibody in 20 mM MES, 140 mM NaCl pH 5.5; 10 min at 20% buffer B (20 mM Tris, 140 mM NaCl pH 8.8), then 20-100% buffer B over 80 min; 0.5 mL/min

UniProt P55899, sequence (P55899 24-297): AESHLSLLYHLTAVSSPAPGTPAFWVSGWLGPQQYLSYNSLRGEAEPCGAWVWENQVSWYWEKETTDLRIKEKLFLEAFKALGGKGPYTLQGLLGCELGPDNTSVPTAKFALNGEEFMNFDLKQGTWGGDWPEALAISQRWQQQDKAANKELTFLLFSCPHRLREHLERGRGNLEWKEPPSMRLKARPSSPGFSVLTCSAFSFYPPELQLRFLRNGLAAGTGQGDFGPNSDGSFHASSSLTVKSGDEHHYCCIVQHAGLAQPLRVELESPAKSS

Substance	FcRn ret. time
Bapi-Fab8D3 (bispecific bapineuzumab IgG1, knobs-into-holes, with a single-chain Fab of the TfR antibody 8D3 on the C-terminus of one heavy chain; L234A, L235A, P329G) (bispecific antibody)	46.4 min
Bapi (monospecific bapineuzumab IgG with effector function reducing mutations L234A, L235A, P329G) (antibody)	46.4 min
Bapi (control), control variant without mutations (antibody)	46.4 min

— article PMC11028011
